These results are taken from publication PMC314469, “Protein Interaction Networks by Proteome Peptide Scanning” (PLoS Biology, 2004).

Holding throughout (experiment): SPOT array
Test [1] concerns the target T1, Boi1 SH3 (BOI1_YEAST), P38041.
T1 chain: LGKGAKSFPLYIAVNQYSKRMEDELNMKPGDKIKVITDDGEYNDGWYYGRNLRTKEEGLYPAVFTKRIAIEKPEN

The target in test [2] is T2, Yfr024 SH3 (LSB3_YEAST), P43603.
T2 chain: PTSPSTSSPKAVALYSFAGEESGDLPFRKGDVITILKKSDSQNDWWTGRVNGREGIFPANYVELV

The target in test [3] is T3, Yhr016c SH3 (YSC84_YEAST), P32793.
T3 chain: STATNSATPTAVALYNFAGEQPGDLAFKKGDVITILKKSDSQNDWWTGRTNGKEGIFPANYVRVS

Test [4] addresses T4, Rvs167 SH3 (RV167_YEAST), P39743.
T4 chain: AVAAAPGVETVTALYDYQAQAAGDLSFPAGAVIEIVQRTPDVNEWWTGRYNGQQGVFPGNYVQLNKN

Test [5] concerns the target T5, Boi2 SH3 (BOI2_YEAST), P39969.
T5 chain: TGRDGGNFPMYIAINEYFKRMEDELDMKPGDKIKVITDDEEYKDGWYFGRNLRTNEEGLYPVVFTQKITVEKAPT

Consider GPAPPPPPRASRPT [YOR181W 384-397], for which the normalised SPOT signal, Boehringer light units (BLU); mean over the file's lines of this peptide in test [1] is 10300; in test [2], 6370; in test [3], 2360; in test [4], 3120; in test [5] it was 55.8.

Consider GIKPQQPIKVDIKG [YPL105C 573-586], for which the normalised SPOT signal, Boehringer light units (BLU); mean over the file's lines of this peptide in test [1] is 115; in test [2], 103; in test [3], 153; in test [4], 38.7; in test [5], 41.

GIHPGFPIRMVQYA [YPL025C 36-49]: the normalised SPOT signal, Boehringer light units (BLU); mean over the file's lines of this peptide in test [1] was 69.6; in test [2] it was 331; in test [3], 154; in test [4], 24.6; in test [5], 114.

As for GPPPAMPARPTATT [YBL007C 192-205], the normalised SPOT signal, Boehringer light units (BLU); mean over the file's lines of this peptide in test [1] worked out at 86.8; in test [2], 11500; in test [3] it was 1070; in test [4], 83.3; in test [5], 140.

Turning to GNIPVFPAKFGIQF [YAL010C 476-489], the normalised SPOT signal, Boehringer light units (BLU); mean over the file's lines of this peptide in test [1] came out at 46.1; in test [2], 1730; in test [3], 212; in test [4], 50.1; in test [5], 59.2.

Consider GHTPQFPTKDEVSS [YNR031C 1516-1529], for which the normalised SPOT signal, Boehringer light units (BLU); mean over the file's lines of this peptide in test [1] stood at 25.2; in test [2], 19.8; in test [3], 266; in test [4] it was 22.1; in test [5], 31.7.

In the case of GGQPPVPVRMQPQP [YBR108W 379-392], the normalised SPOT signal, Boehringer light units (BLU); mean over the file's lines of this peptide turned out to be 85.9 in test [1]; 6010 in test [2]; 1930 in test [3]; 794 in test [4]; 89.9 in test [5].

Take GNVPHSPVRFADTV [YJR025C 93-106]: the normalised SPOT signal, Boehringer light units (BLU); mean over the file's lines of this peptide in test [1] came out at 115; in test [2], 0.8; in test [3] it was 49; in test [4], 36.2; in test [5], 29.6.

With GKVPVQPRKRKSIT [YKL062W 547-560], the normalised SPOT signal, Boehringer light units (BLU); mean over the file's lines of this peptide in test [1] amounted to 242; in test [2], 1430; in test [3], 296; in test [4], 73; in test [5], 85.3.

Turning to GILPLAPLRPLDPL [YPL085W 915-928], the normalised SPOT signal, Boehringer light units (BLU); mean over the file's lines of this peptide in test [1] came to 115; in test [2], 1660; in test [3], 318; in test [4], 57.3; in test [5], 30.8.

Take GRIPQLPNRDEMTA [YCR073C 1268-1281]: the normalised SPOT signal, Boehringer light units (BLU); mean over the file's lines of this peptide in test [1] amounted to 78.4; in test [2], 11500; in test [3] it was 20900; in test [4], 11900; in test [5], 54.1.

On to GRHPDMPTRVKNAY [YDR188W 219-232], for which the normalised SPOT signal, Boehringer light units (BLU); mean over the file's lines of this peptide in test [1] worked out at 104; in test [2] it was 768; in test [3], 152; in test [4], 148; in test [5], 44.5.

Consider GITPVGPGKFSRSA [YEL050C 256-269], for which the normalised SPOT signal, Boehringer light units (BLU); mean over the file's lines of this peptide turned out to be 21.6 in test [1]; 21.5 in test [2]; 81.1 in test [3]; 32.3 in test [4]; 55.7 in test [5].

As to GLEPNTPLKSIKVD [YGL009C 340-353], the normalised SPOT signal, Boehringer light units (BLU); mean over the file's lines of this peptide amounted to 55.1 in test [1]; 68.2 in test [2]; 47.7 in test [3]; 59.1 in test [4]; 58.9 in test [5].

As to GNTPDAPKRGFLGY [YDL245C 44-57], the normalised SPOT signal, Boehringer light units (BLU); mean over the file's lines of this peptide in test [1] turned out to be 86.5; in test [2], 658; in test [3] it was 230; in test [4], 37.1; in test [5], 27.7.
